The supplement of paper PMC11246515
± gives the standard deviation of the averaged measurements.

Experiment: total protein half-life in vivo (active degradation + dilution); higher = more stable protein
[1] = E. coli NCM3722 delta-clpP delta-lon delta-hslV, growth: N-lim chemostat, doubling time 6 h
[2] = E. coli NCM3722 delta-clpP, growth: N-lim chemostat, doubling time 6 h
[3] = E. coli NCM3722 delta-hslV, growth: N-lim chemostat, doubling time 6 h
[4] = E. coli NCM3722 delta-lon, growth: N-lim chemostat, doubling time 6 h
[5] = E. coli NCM3722 delta-smpB, growth: N-lim chemostat, doubling time 6 h
[6] = wild type E. coli NCM3722, growth: C-lim chemostat, doubling time 3 h
[7] = wild type E. coli NCM3722, growth: C-lim chemostat, doubling time 6 h
[8] = wild type E. coli NCM3722, growth: C-lim chemostat, doubling time 12 h
[9] = wild type E. coli NCM3722, growth: N-lim chemostat, doubling time 6 h
[10] = wild type E. coli NCM3722, growth: N-lim chemostat, doubling time 12 h
[11] = wild type E. coli NCM3722, growth: P-lim chemostat, doubling time 6 h
[12] = wild type E. coli NCM3722, growth: P-lim chemostat, doubling time 12 h

| Sequence | total protein half-life in vivo [1] [h] | total protein half-life in vivo [2] [h] | total protein half-life in vivo [3] [h] | total protein half-life in vivo [4] [h] | total protein half-life in vivo [5] [h] | total protein half-life in vivo [6] [h] | total protein half-life in vivo [7] [h] | total protein half-life in vivo [8] [h] | total protein half-life in vivo [9] [h] | total protein half-life in vivo [10] [h] | total protein half-life in vivo [11] [h] | total protein half-life in vivo [12] [h] |
| --- | --- | --- | --- | --- | --- | --- | --- | --- | --- | --- | --- | --- |
| MHDANIRVAIAGAGGRMGRQLIQAALALEGVQLGAALEREGSSLLGSDAGELAGAGKTGVTVQSSLDAVKDDFDVFIDFTRPEGTLNHLAFCRQHGKGMVIGTTGFDEAGKQAIRDAAADIAIVFAANFSVGVNVMLKLLEKAAKVMGDYTDIEIIEAHHRHKVDAPSGTALAMGEAIAHALDKDLKDCAVYSREGHTGERVPGTIGFATVRAGDIVGEHTAMFADIGERLEITHKASSRMTFANGAVRSALWLSGKESGLFDMRDVLDLNNL | 5.49 ± 0.1 | 4.89 ± 0.007 | 5.04 ± 0.21 | 5.38 ± 0.62 | 4.76 ± 0.23 | 2.91 ± 0.068 | 6.1 ± 0.19 | 12 ± 0.68 | 5.092 ± 0.023 | 9.28 ± 0.75 | 5.71 ± 0.34 | 12.5 ± 1.2 |
| MFTATEAVPVAKVVAGNKRYPGVVALDNVNFTLNKGEVRALLGKNGAGKSTLIRMLTGSERPDSGDIWIGETRLEGDEATLTRRAAELGVRAVYQELSLVEGLTVAENLCLGQWPRRNGMIDYLQMAQDAQRCLQALGVDVSPEQLVSTLSPAQKQLVEIARVMKGEPRVVILDEPTSSLASAEVELVISAVKKMSALGVAVIYVSHRMEEIRRIASCATVMRDGQVAGDVMLENTSTHHIVSLMLGRDHVDIAPVAPQEIVDQAVLEVRALRHKPKLEDISFTLRRGEVLGIAGLLGAGRSELLKAIVGLEEYEQGEIVINGEKITRPDYGDMLKRGIGYTPENRKEAGIIPWLGVDENTVLTNRQKISANGVLQWSTIRRLTEEVMQRMTVKAASSETPIGTLSGGNQQKVVIGRWVYAASQILLLDEPTRGVDIEAKQQIYRIVRELAAEGKSVVFISSEVEELPLVCDRILLLQHGTFSQEFHAPVNVDELMSAILSVH | – | – | – | – | – | – | – | 7.2 ± 4.9 | – | – | 4.92 | – |
| MKTVVFAYHDMGCLGIEALLAAGYEISAIFTHTDNPGEKAFYGSVARLAAERGIPVYAPDNVNHPLWVERIAQLSPDVIFSFYYRHLIYDEILQLAPAGAFNLHGSLLPKYRGRAPLNWVLVNGETETGVTLHRMVKRADAGAIVAQLRIAIAPDDIAITLHHKLCHAARQLLEQTLPAIKHGNILEIAQRENEATCFGRRTPDDSFLEWHKPASVLHNMVRAVADPWPGAFSYVGNQKFTVWSSRVHPHASKAQPGSVISVAPLLIACGDGALEIVTGQAGDGITMQGSQLAQTLGLVQGSRLNSQPACTARRRTRVLILGVNGFIGNHLTERLLREDHYEVYGLDIGSDAISRFLNHPHFHFVEGDISIHSEWIEYHVKKCDVVLPLVAIATPIEYTRNPLRVFELDFEENLRIIRYCVKYRKRIIFPSTSEVYGMCSDKYFDEDHSNLIVGPVNKPRWIYSVSKQLLDRVIWAYGEKEGLQFTLFRPFNWMGPRLDNLNAARIGSSRAITQLILNLVEGSPIKLIDGGKQKRCFTDIRDGIEALYRIIENAGNRCDGEIINIGNPENEASIEELGEMLLASFEKHPLRHHFPPFAGFRVVESSSYYGKGYQDVEHRKPSIRNAHRCLDWEPKIDMQETIDETLDFFLRTVDLTDKPS | 5.15 ± 0.03 | 3.11 ± 0.24 | 2.84 ± 0.19 | 3.86 ± 0.1 | 3.13 ± 0.3 | – | 4.8816 ± 0.00064 | 10.4 ± 1.2 | 2.93 ± 0.43 | 4.61 ± 0.62 | 5.82 ± 0.22 | 11.65 ± 0.019 |
| MSSTLREASKDTLQAKDKTYHYYSLPLAAKSLGDITRLPKSLKVLLENLLRWQDGNSVTEEDIHALAGWLKNAHADREIAYRPARVLMQDFTGVPAVVDLAAMREAVKRLGGDTAKVNPLSPVDLVIDHSVTVDRFGDDEAFEENVRLEMERNHERYVFLKWGKQAFSRFSVVPPGTGICHQVNLEYLGKAVWSELQDGEWIAYPDTLVGTDSHTTMINGLGVLGWGVGGIEAEAAMLGQPVSMLIPDVVGFKLTGKLREGITATDLVLTVTQMLRKHGVVGKFVEFYGDGLDSLPLADRATIANMSPEYGATCGFFPIDAVTLDYMRLSGRSEDQVELVEKYAKAQGMWRNPGDEPIFTSTLELDMNDVEASLAGPKRPQDRVALPDVPKAFAASNELEVNATHKDRQPVDYVMNGHQYQLPDGAVVIAAITSCTNTSNPSVLMAAGLLAKKAVTLGLKRQPWVKASLAPGSKVVSDYLAKAKLTPYLDELGFNLVGYGCTTCIGNSGPLPDPIETAIKKSDLTVGAVLSGNRNFEGRIHPLVKTNWLASPPLVVAYALAGNMNINLASEPIGHDRKGDPVYLKDIWPSAQEIARAVEQVSTEMFRKEYAEVFEGTAEWKGINVTRSDTYGWQEDSTYIRLSPFFDEMQATPAPVEDIHGARILAMLGDSVTTDHISPAGSIKPDSPAGRYLQGRGVERKDFNSYGSRRGNHEVMMRGTFANIRIRNEMVPGVEGGMTRHLPDSDVVSIYDAAMRYKQEQTPLAVIAGKEYGSGSSRDWAAKGPRLLGIRVVIAESFERIHRSNLIGMGILPLEFPQGVTRKTLGLTGEEKIDIGDLQNLQPGATVPVTLTRADGSQEVVPCRCRIDTATELTYYQNDGILHYVIRNMLK | 5.26 ± 0.24 | 4.44 ± 0.1 | 4.73 ± 0.14 | 4.71 ± 0.15 | 4.362 ± 0.015 | 3.14 ± 0.26 | 5.47 ± 0.13 | 9.9 ± 0.64 | 4.65 ± 0.17 | 7.39 ± 0.19 | 5.81 ± 0.33 | 11 ± 0.17 |
| MQNAGSLVVLGSINADHILNLQSFPTPGETVTGNHYQVAFGGKGANQAVAAGRSGANIAFIACTGDDSIGESVRQQLATDNIDITPVSVIKGESTGVALIFVNGEGENVIGIHAGANAALSPALVEAQRERIANASALLMQLESPLESVMAAAKIAHQNKTIVALNPAPARELPDELLALVDIITPNETEAEKLTGIRVENDEDAAKAAQVLHEKGIRTVLITLGSRGVWASVNGEGQRVPGFRVQAVDTIAAGDTFNGALITALLEEKPLPEAIRFAHAAAAIAVTRKGAQPSVPWREEIDAFLDRQR [P0A9J6] | – | 6.07 ± 2.1 | 4.44 ± 0.042 | 4.91 ± 0.38 | 4.54 ± 0.2 | 3.14 ± 0.1 | 5.66 ± 0.076 | 11.8 ± 0.53 | 4.74 ± 0.36 | 7.76 ± 0.41 | 5.878 ± 0.056 | 11.9 ± 0.91 |
| MSNLSLDFSDNTFQPLAARMRPENLAQYIGQQHLLAAGKPLPRAIEAGHLHSMILWGPPGTGKTTLAEVIARYANADVERISAVTSGVKEIREAIERARQNRNAGRRTILFVDEVHRFNKSQQDAFLPHIEDGTITFIGATTENPSFELNSALLSRARVYLLKSLSTEDIEQVLTQAMEDKTRGYGGQDIVLPDETRRAIAELVNGDARRALNTLEMMADMAEVDDSGKRVLKPELLTEIAGERSARFDNKGDRFYDLISALHKSVRGSAPDAALYWYARIITAGGDPLYVARRCLAIASEDVGNADPRAMQVAIAAWDCFTRVGPAEGERAIAQAIVYLACAPKSNAVYTAFKAALADARERPDYDVPVHLRNAPTKLMKEMGYGQEYRYAHDEANAYAAGEVYFPPEIAQTRYYFPTNRGLEGKIGEKLAWLAEQDQNSPIKRYR [P0AAZ4] | 5.65 ± 0.3 | 4.56 ± 0.49 | 4.91 ± 1.5 | 4.562 ± 0.028 | 3.65 ± 0.14 | 3.02 ± 0.14 | 5.39 ± 0.29 | 9.37 ± 0.81 | 3.82 ± 0.099 | 5.11 ± 0.23 | 5.07 ± 0.082 | 9.954 ± 0.019 |
| MYTSGYAHRSSSFSSAASKIARVSTENTTAGLISEVVYREDQPMMTQLLLLPLLQQLGQQSRWQLWLTPQQKLSREWVQASGLPLTKVMQISQLSPCHTVESMVRALRTGNYSVVIGWLADDLTEEEHAELVDAANEGNAMGFIMRPVSASSHATRQLSGLKIHSNLYH [P0AFZ5] | 5.07 ± 0.91 | – | – | 0.671 ± 0.059 | – | – | – | – | – | – | – | – |
| MDYRKIIKEIGRGKNHARDLDRDTARGLYAHMLNGEVPDLELGGVLIALRIKGEGEAEMLGFYEAMQNHTIKLTPPAGKPMPIVIPSYNGARKQANLTPLLAILLHKLGFPVVVHGVSEDPTRVLTETIFELMGITPTLHGGQAQAKLDEHQPVFMPVGAFCPPLEKQLAMRWRMGVRNSAHTLAKLATPFAEGEALRLSSVSHPEYIGRVAKFFSDIGGRALLMHGTEGEVYANPQRCPQINLIDREGMRVLYEKQDTAGSELLPQAKDPETTAQWIERCLAGSEPIPESLKIQMACCLVATGEAATISDGLARVNQAF | 4.81 ± 0.7 | 4.14 ± 0.24 | 4.41 ± 0.12 | 5.22 ± 0.37 | 4.44 ± 0.42 | 3.09 ± 0.67 | 5.84 ± 0.53 | 9.72 ± 1.2 | 4.54 ± 0.17 | 7.03 ± 0.37 | 5.83 ± 0.098 | 11.7 ± 0.24 |
